The test system of this data set is human eosinophils. Put plainly: Eosinophil depletion (cytotoxic) activity in human peripheral blood cells, flow cytometry. The conditions noted are these: 37° C., 20 hours. The class given is cell-based. On the procedure: Human peripheral blood collected by adding a heparin sodium injection liquid was centrifuged at 4° C. and 1500 rpm for 30 minutes, and the plasma was recovered.
After the plasma was recovered, PBS (NACALAI TESQUE, Inc.) was added to the pellet containing the red blood up to the original volume of blood and the pellet was suspended. Next, to 1 mL of the suspension, 10 mL of hemolyzing solution [solution obtained by diluting 10×RBC Lysis buffer (eBioscience) 10 times with sterile water] was added to be mixed by inversion. The resultant was allowed to stand at room temperature for 10 minutes and centrifuged at room temperature and 1500 rpm for 5 minutes and washed twice with PBS after the supernatant was removed therefrom.
Thereafter, the cell pellet was suspended with the recovered plasma and the cells were seeded in a 48-well plate at 300 μL/well, each of chLym2, humanized Lym2 antibodies LV0HV0, LV0HV1, and LV0HV2a, or an isotype control antibody [IgG1 antibody prepared according to the method described in Example 5 using a vector encoding an anti-2,4-dinitrophenol (DNP) IgG1 antibody described in Clin Cancer Res 2005, 11(8), 3126 to 3135 (hereinafter, referred to as anti-DNP IgG1 antibody)] were added at each final concentrations of 1000, 100, 33, 11, 3.7, 1.2, 0.4, and 0.01 ng/mL to cause a reaction in a 5% CO2 incubator at 37° C. for 20 hours.
After the reaction, the cell fluid in each well was recovered, 10 mL of SM was added thereto, 200 μL per sample of CountBright Absolute Counting Beads, for flow cytometry (Molecular Probes) was added as control beads, and the fluid was centrifuged at 4° C. and 2000 rpm for 10 minutes, and then the supernatant was removed. The resultant was washed twice with SM, 10000 μg/mL of IgG from human serum (Sigma-Aldrich Co. LLC) diluted with SM was added at 300 μL/sample and suspended to cause a reaction at 4° C. for 30 minutes. […]
The cells were washed twice with SM, suspended by SM containing 1% of 7-AAD Staining Solution (BD Biosciences), allowed to stand at 4° C. for 10 minutes, and the fluorescent intensity was analyzed by flow cytometry (BD Biosciences, FACS CantoII).
Human eosinophils were detected as 7-AAD negative siglec8-PE positive fractions in granulocyte fractions of FSC-SSC deployment. Human basophils were detected as 7-AAD negative fractions, CD123-PC-Cy7 positive fractions, FcεRI-APC positive fractions in lymphocyte fractions of FSC-SSC deployment. The cell depletion activity was evaluated by analyzing the count number of each cell per a certain number of CountBright. […]

The text below walks through data of patent US10100120B2, “Antibody which specifically binds to human CRTH2” (KYOWA HAKKO KIRIN CO., LTD, priority 2015, dated 2018).

B1: LV0HV1: humanized Lym2 antibody, VL LV0 (SEQ ID NO: 33), VH HV1 (SEQ ID NO: 51) (antibody, V domains shown)
VH: EVQLVESGGGVVQPGRSLRLSCAASGFTFSNYYMAWVRQAPGKGLEWVATISYDGSSTYYRDSVKGRFTISRDNAKNSLYLQMNSLRAEDTATYYCARHRGYYYSGAGYFDYWGQGTMVTVSS
VL: DIVMTQTPLSLPVTPGESASISCRSSQSLEYSDGYTYLEWYLQKPGQSPQVLIYGVSNRFSGVPDRFSGSGSGTDFTLKISRVEAEDVGVYYCFQATHDPLTFGQGTKLEIK
In the case of B1, the “cytotoxic activity against eosinophils” value (Example 8, 0.01-1000 ng/mL, FIG. 3) is recorded as “comparable to the chimeric Lym2 antibody chLym2”. Under “Example 14, 0.1-1000 ng/mL, FIG. 11”, the removal of eosinophils entry is “removed”.
